According to patent publication US20210246166A1 (Bayer, published 2021):
Bridge positions count the residues as written; N and C are the ends. Square brackets hold non-standard residues; d marks the D form. Ends that are not written are not given here. Pro(cis-4-CF3) = O=C(O)[C@@H]1C[C@H](C(F)(F)F)CN1; Oic = O=C(O)[C@@H]1C[C@@H]2CCCC[C@@H]2N1; PEG8 = NCCOCCOCCOCCOCCOCCOCCOCCOCCC(=O)O; Pro‑D2 = L-proline (3,4-2H), deuterated; PEG7 = NCCOCCOCCOCCOCCOCCOCCOCCC(=O)O; PEG6 = NCCOCCOCCOCCOCCOCCOCCC(=O)O; tBuAla = CC(C)(C)C[C@H](N)C(=O)O; PEG4 = NCCOCCOCCOCCOCCC(=O)O; Pen = CC(C)(S)[C@H](N)C(=O)O; Tranexamic = tranexamic acid; 4Amb = NCc1ccc(C(=O)O)cc1; NMeC = CN[C@@H](CS)C(=O)O; NMeA = CN[C@@H](C)C(=O)O; Sar = CNCC(=O)O

T1: recombinant rat MASP1 active protease (amino acids 302-704, C-terminal His Tag) (rat, UniProt Q8CHN8 302-704)
T1 sequence: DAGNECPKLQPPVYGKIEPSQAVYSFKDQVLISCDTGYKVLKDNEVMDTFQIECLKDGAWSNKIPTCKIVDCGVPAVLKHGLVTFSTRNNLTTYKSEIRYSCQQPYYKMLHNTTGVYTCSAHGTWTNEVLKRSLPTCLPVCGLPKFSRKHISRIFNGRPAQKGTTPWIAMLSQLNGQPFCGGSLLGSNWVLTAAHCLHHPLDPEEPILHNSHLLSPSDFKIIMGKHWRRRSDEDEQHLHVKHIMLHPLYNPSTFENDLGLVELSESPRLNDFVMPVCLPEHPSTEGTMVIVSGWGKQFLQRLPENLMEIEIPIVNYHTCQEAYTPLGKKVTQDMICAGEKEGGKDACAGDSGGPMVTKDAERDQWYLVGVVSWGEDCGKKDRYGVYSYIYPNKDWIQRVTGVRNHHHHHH


What was measured:
[1] = target: T1, recombinant rat MASP1 active protease …; test: cell-based or functional assay
[2] = target: recombinant rat MASP2 active protease (amino acids 296-685, C-terminal His Tag) (rat, UniProt Q9JJS8 296-685); test: cell-based or functional assay
Chain of recombinant rat MASP2 active protease (amino acids 296-685, C-terminal His Tag) (Q9JJS8 other isoform, or with tags, fused parts or gaps limits assumed): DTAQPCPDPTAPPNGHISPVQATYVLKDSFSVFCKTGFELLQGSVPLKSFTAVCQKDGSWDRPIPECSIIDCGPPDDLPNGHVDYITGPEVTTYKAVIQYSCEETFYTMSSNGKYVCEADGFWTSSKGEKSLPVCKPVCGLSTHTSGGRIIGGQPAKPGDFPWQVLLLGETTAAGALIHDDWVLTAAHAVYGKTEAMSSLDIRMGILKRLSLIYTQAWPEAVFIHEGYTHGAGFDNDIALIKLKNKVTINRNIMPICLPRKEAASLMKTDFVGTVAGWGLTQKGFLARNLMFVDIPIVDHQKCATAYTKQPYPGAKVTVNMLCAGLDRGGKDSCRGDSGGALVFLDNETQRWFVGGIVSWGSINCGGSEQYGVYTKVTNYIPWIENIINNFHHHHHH

rat MASP1 IC50 [1] [µM] | rat MASP2 IC50 [2] [µM] | Binder
0.14 | 0.053 | [Sar]ICSRSLP[Oic]I[Pen]IP[PEG8]-NH2 (disulfide 3-11; N-terminus assumed; SMILES CC[C@H](C)[C@H](NC(=O)CNC)C(=O)N[C@H]1CSSC(C)(C)[C@@H](C(=O)N[C@H](C(=O)N2CCC[C@H]2C(=O)NCCOCCOCCOCCOCCOCCOCCOCCOCCC(N)=O)[C@@H](C)CC)NC(=O)[C@H]([C@@H](C)CC)NC(=O)[C@@H]2C[C@@H]3CCCC[C@@H]3N2C(=O)[C@@H]2CCCN2C(=O)[C@H](CC(C)C)NC(=O)[C@H](CO)NC(=O)[C@H](CCCNC(=N)N)NC(=O)[C@H](CO)NC1=O) [Example 168: ((N-Me)G)-IC+SRSLP-(Oic)-I-(Pen)+IP-(PEG8(28 atoms))-NH2]
0.042 | 0.021 | AICSRS[tBuAla]PPI[Pen]IP[Tranexamic]-NH2 (disulfide 3-11) [Example 171: AIC+SRS-((tBu)A)-PPI-(Pen)+IP-(Tranexamic)-NH2]
0.054 | 0.00982 | AICSRSLPPI[Pen]IPD-NH2 (disulfide 3-11; N-terminus assumed; SMILES CC[C@H](C)[C@H](NC(=O)[C@H](C)N)C(=O)N[C@H]1CSSC(C)(C)[C@@H](C(=O)N[C@H](C(=O)N2CCC[C@H]2C(=O)N[C@@H](CC(=O)O)C(N)=O)[C@@H](C)CC)NC(=O)[C@H]([C@@H](C)CC)NC(=O)[C@@H]2CCCN2C(=O)[C@@H]2CCCN2C(=O)[C@H](CC(C)C)NC(=O)[C@H](CO)NC(=O)[C@H](CCCNC(=N)N)NC(=O)[C@H](CO)NC1=O) [Example 170: AIC+SRSLPPI-(Pen)+IPD-NH2]
0.247 | 0.42 | AICSRS[tBuAla]P[Pro(cis-4-CF3)]ICIPD-NH2 (disulfide 3-11; N-terminus assumed; SMILES CC[C@H](C)[C@H](NC(=O)[C@H](C)N)C(=O)N[C@H]1CSSC[C@@H](C(=O)N[C@H](C(=O)N2CCC[C@H]2C(=O)N[C@@H](CC(=O)O)C(N)=O)[C@@H](C)CC)NC(=O)[C@H]([C@@H](C)CC)NC(=O)[C@@H]2C[C@H](C(F)(F)F)CN2C(=O)[C@@H]2CCCN2C(=O)[C@H](CC(C)(C)C)NC(=O)[C@H](CO)NC(=O)[C@H](CCCNC(=N)N)NC(=O)[C@H](CO)NC1=O) [Example 158: AIC+SRS-((tBu)A)-P-((4-CF3)P)-IC+IPD-NH2]
0.021 | 0.016 | [Sar]ICSRS[tBuAla]PPI[Pen]IP-NH2 (disulfide 3-11; N-terminus assumed; SMILES CC[C@H](C)[C@H](NC(=O)CNC)C(=O)N[C@H]1CSSC(C)(C)[C@@H](C(=O)N[C@H](C(=O)N2CCC[C@H]2C(N)=O)[C@@H](C)CC)NC(=O)[C@H]([C@@H](C)CC)NC(=O)[C@@H]2CCCN2C(=O)[C@@H]2CCCN2C(=O)[C@H](CC(C)(C)C)NC(=O)[C@H](CO)NC(=O)[C@H](CCCNC(=N)N)NC(=O)[C@H](CO)NC1=O) [Example 156: ((N-Me)G)-IC+SRS-((tBu)A)-PPI-(Pen)+IP-NH2]
0.077 | 0.0037 | [4Amb]ICSRS[tBuAla]PPI[Pen]IPD-NH2 (disulfide 3-11; N-terminus assumed; SMILES CC[C@H](C)[C@H](NC(=O)c1ccc(CN)cc1)C(=O)N[C@H]1CSSC(C)(C)[C@@H](C(=O)N[C@H](C(=O)N2CCC[C@H]2C(=O)N[C@@H](CC(=O)O)C(N)=O)[C@@H](C)CC)NC(=O)[C@H]([C@@H](C)CC)NC(=O)[C@@H]2CCCN2C(=O)[C@@H]2CCCN2C(=O)[C@H](CC(C)(C)C)NC(=O)[C@H](CO)NC(=O)[C@H](CCCNC(=N)N)NC(=O)[C@H](CO)NC1=O) [Example 187: (4-(Aminomethyl)benzoic acid)-IC+SRS-((tBu)A)-PPI-(Pen)+IPD-NH2]
0.11 | 0.068 | [Sar]ICSRSLP[Oic]I[Pen]IPD[PEG6]-NH2 (disulfide 3-11; N-terminus assumed; SMILES CC[C@H](C)[C@H](NC(=O)CNC)C(=O)N[C@H]1CSSC(C)(C)[C@@H](C(=O)N[C@H](C(=O)N2CCC[C@H]2C(=O)N[C@@H](CC(=O)O)C(=O)NCCOCCOCCOCCOCCOCCOCCC(N)=O)[C@@H](C)CC)NC(=O)[C@H]([C@@H](C)CC)NC(=O)[C@@H]2C[C@@H]3CCCC[C@@H]3N2C(=O)[C@@H]2CCCN2C(=O)[C@H](CC(C)C)NC(=O)[C@H](CO)NC(=O)[C@H](CCCNC(=N)N)NC(=O)[C@H](CO)NC1=O) [Example 146: ((N-Me)G)-IC+SRSLP-(Oic)-I-(Pen)+IPD-(PEG5(22 atoms))-NH2]
0.14 | 0.095 | [Sar]ICSRSLP[Oic]I[Pen]IPD[PEG8]-NH2 (disulfide 3-11; N-terminus assumed; SMILES CC[C@H](C)[C@H](NC(=O)CNC)C(=O)N[C@H]1CSSC(C)(C)[C@@H](C(=O)N[C@H](C(=O)N2CCC[C@H]2C(=O)N[C@@H](CC(=O)O)C(=O)NCCOCCOCCOCCOCCOCCOCCOCCOCCC(N)=O)[C@@H](C)CC)NC(=O)[C@H]([C@@H](C)CC)NC(=O)[C@@H]2C[C@@H]3CCCC[C@@H]3N2C(=O)[C@@H]2CCCN2C(=O)[C@H](CC(C)C)NC(=O)[C@H](CO)NC(=O)[C@H](CCCNC(=N)N)NC(=O)[C@H](CO)NC1=O) [Example 141: ((N-Me)G)-IC+SRSLP-(Oic)-I-(Pen)+IPD-(PEG8(28 atoms))-NH2]
0.04 | 0.0503 | AICSRSLP[Oic]ICIPD-OH (disulfide 3-11; N-terminus assumed; SMILES CC[C@H](C)[C@H](NC(=O)[C@H](C)N)C(=O)N[C@H]1CSSC[C@@H](C(=O)N[C@H](C(=O)N2CCC[C@H]2C(=O)N[C@@H](CC(=O)O)C(=O)O)[C@@H](C)CC)NC(=O)[C@H]([C@@H](C)CC)NC(=O)[C@@H]2C[C@@H]3CCCC[C@@H]3N2C(=O)[C@@H]2CCCN2C(=O)[C@H](CC(C)C)NC(=O)[C@H](CO)NC(=O)[C@H](CCCNC(=N)N)NC(=O)[C@H](CO)NC1=O) [Example 153: AIC+SRSLP-(Oic)-IC+IPD-OH]
0.07 | 0.042 | [Sar]ICSRSLP[Oic]I[Pen]I[5‑Azaspiro(2.4)heptane‑1‑carboxylic acid]-OH (disulfide 3-11) [Example 194: ((N-Me)G)-IC+SRSLP-(Oic)-I-(Pen)+I-((5-Azaspiro[2.4]heptane-1-carboxylic acid)-OH]
0.1 | 0.05 | [Sar]ICSRSLP[Oic]I[Pen]IP[PEG6]-NH2 (disulfide 3-11; N-terminus assumed; SMILES CC[C@H](C)[C@H](NC(=O)CNC)C(=O)N[C@H]1CSSC(C)(C)[C@@H](C(=O)N[C@H](C(=O)N2CCC[C@H]2C(=O)NCCOCCOCCOCCOCCOCCOCCC(N)=O)[C@@H](C)CC)NC(=O)[C@H]([C@@H](C)CC)NC(=O)[C@@H]2C[C@@H]3CCCC[C@@H]3N2C(=O)[C@@H]2CCCN2C(=O)[C@H](CC(C)C)NC(=O)[C@H](CO)NC(=O)[C@H](CCCNC(=N)N)NC(=O)[C@H](CO)NC1=O) [Example 140: ((N-Me)G)-IC+SRSLP-(Oic)-I-(Pen)+IP-(PEG5(22 atoms))-NH2]
0.057 | 0.0109 | AICSRSLP[Oic]I[NMeC]IPD-NH2 (disulfide 3-11; N-terminus assumed; SMILES CC[C@H](C)[C@H](NC(=O)[C@H](C)N)C(=O)N[C@H]1CSSC[C@@H](C(=O)N[C@H](C(=O)N2CCC[C@H]2C(=O)N[C@@H](CC(=O)O)C(N)=O)[C@@H](C)CC)N(C)C(=O)[C@H]([C@@H](C)CC)NC(=O)[C@@H]2C[C@@H]3CCCC[C@@H]3N2C(=O)[C@@H]2CCCN2C(=O)[C@H](CC(C)C)NC(=O)[C@H](CO)NC(=O)[C@H](CCCNC(=N)N)NC(=O)[C@H](CO)NC1=O) [Example 185: AIC+SRSLP-(Oic)-I-((N-Me)C)+IPD-NH2]
0.0656 | 0.0351 | [Sar]ICSRS[tBuAla]PPI[Pen]IP[PEG4]-NH2 (disulfide 3-11; N-terminus assumed; SMILES CC[C@H](C)[C@H](NC(=O)CNC)C(=O)N[C@H]1CSSC(C)(C)[C@@H](C(=O)N[C@H](C(=O)N2CCC[C@H]2C(=O)NCCOCCOCCOCCOCCC(N)=O)[C@@H](C)CC)NC(=O)[C@H]([C@@H](C)CC)NC(=O)[C@@H]2CCCN2C(=O)[C@@H]2CCCN2C(=O)[C@H](CC(C)(C)C)NC(=O)[C@H](CO)NC(=O)[C@H](CCCNC(=N)N)NC(=O)[C@H](CO)NC1=O) [Example 174: ((N-Me)G)-IC+SRS-((tBu)A)-PPI-(Pen)+IP-(PEG3(16atoms))-NH2]
0.011 | 0.01 | [NMeA]ICSRS[tBuAla]PPI[Pen]IP-NH2 (disulfide 3-11; N-terminus assumed; SMILES CC[C@H](C)[C@H](NC(=O)[C@H](C)NC)C(=O)N[C@H]1CSSC(C)(C)[C@@H](C(=O)N[C@H](C(=O)N2CCC[C@H]2C(N)=O)[C@@H](C)CC)NC(=O)[C@H]([C@@H](C)CC)NC(=O)[C@@H]2CCCN2C(=O)[C@@H]2CCCN2C(=O)[C@H](CC(C)(C)C)NC(=O)[C@H](CO)NC(=O)[C@H](CCCNC(=N)N)NC(=O)[C@H](CO)NC1=O) [Example 126: ((N-Me)A)-IC+SRS-((tBu)A)-PPI-(Pen)+IP-NH2]
0.12 | 0.053 | [Sar]ICSRSLP[Oic]I[Pen]IP[PEG7]-NH2 (disulfide 3-11; N-terminus assumed; SMILES CC[C@H](C)[C@H](NC(=O)CNC)C(=O)N[C@H]1CSSC(C)(C)[C@@H](C(=O)N[C@H](C(=O)N2CCC[C@H]2C(=O)NCCOCCOCCOCCOCCOCCOCCOCCC(N)=O)[C@@H](C)CC)NC(=O)[C@H]([C@@H](C)CC)NC(=O)[C@@H]2C[C@@H]3CCCC[C@@H]3N2C(=O)[C@@H]2CCCN2C(=O)[C@H](CC(C)C)NC(=O)[C@H](CO)NC(=O)[C@H](CCCNC(=N)N)NC(=O)[C@H](CO)NC1=O) [Example 150: ((N-Me)G)-IC+SRSLP-(Oic)-I-(Pen)+IP-(PEG7(25 atoms))-NH2]
0.0109 | 0.0171 | AICSRSL[Pro‑D2][Oic]I[Pen]IPD-OH (disulfide 3-11) [Example 142: AIC+SRSL-(Pro-D2)-(Oic)-I-(Pen)+IPD-OH]
